Experimental data from US20100286372A1 (SCHERING, published 2010).

How the values were obtained:
[1] = biological target: T1, human PXR-LBD (pregnane X receptor ligand binding domain, residues 130-434) with N-terminal 6x His (human, UniProt O75469 130-434); assay: temperature-dependent circular dichroism (thermal denaturation), shift against apo PXR (Tm 41.5 C)
T1 construct: also called apo PXR; not shown: N-terminal 6x His tag
T1 sequence: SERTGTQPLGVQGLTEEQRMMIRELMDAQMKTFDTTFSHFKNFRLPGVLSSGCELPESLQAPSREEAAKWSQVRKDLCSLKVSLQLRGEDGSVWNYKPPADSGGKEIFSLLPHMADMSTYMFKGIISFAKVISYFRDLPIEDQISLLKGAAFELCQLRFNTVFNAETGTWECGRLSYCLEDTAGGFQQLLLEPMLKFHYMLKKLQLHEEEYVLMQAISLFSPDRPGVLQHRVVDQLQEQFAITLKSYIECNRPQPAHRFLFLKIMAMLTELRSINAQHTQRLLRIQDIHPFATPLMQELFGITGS

[2] = biological target: T1, human PXR-LBD (pregnane X receptor …); assay: temperature-dependent circular dichroism (thermal denaturation) of PXR with 50 uM peptide
[3] = biological target: T1, human PXR-LBD (pregnane X receptor …); assay: temperature-dependent circular dichroism (thermal denaturation at 220 nm), 2.5 uM PXR, 50 uM peptide

Kd [3]: 1340 nM
Binder: CPSSHSSLTERHKILHRLLQEGSPS [SRC-1 peptide (676-CPSSHSSLTERHKILHRLLQEGSPS-700)]
ΔTm [1]: 4 C
Tm [2]: 45.5 C
